Results published in patent US20150111836.

Target: purified recombinant N-terminal His6 tagged HIV-1 HXBII Vif protein (E. coli)

B1: purified recombinant A3G-His6 (human APOBEC3G with C-terminal Myc-His6 tag, expressed in 293T cells) (protein)
chain: MKPHFRNTVERMYRDTFSYNFYNRPILSRRNTVWLCYEVKTKGPSRPPLDAKIFRGQVYSELKYHPEMRFFHWFSKWRKLHRDQEYEVTWYISWSPCTKCTRDMATFLAEDPKVTLTIFVARLYYFWDPDYQEALRSLCQKRDGPRATMKIMNYDEFQHCWSKFVYSQRELFEPWNNLPKYYILLHIMLGEILRHSMDPPTFTFNFNNEPWVRGRHETYLCYEVERMHNDTWVLLNQRRGFLCNQAPHKHGFLEGRHAELCFLDVIPFWKLDLDQDYRVTCFTSWSPCFSCAQEMAKFISKNKHVSLCIFTARIYDDQGRCQEGLRTLAEAGAKISIMTYSEFKHCWDTFVDHQGCPFQPWDGLDEHSQDLSGRLRAILQNQEN
A3G-mediated deamination of the ss-deoxyoligonucleotide substrate: Vif inhibits A3G deaminase activity in a dose-dependent manner
